According to patent US20110293599A1 (EWHA UNIVERSITY INDUSTRY COLLABORATION FOUNDATION, published 2011):

How the values were obtained:
[1] = target: T1, Myc-tagged MyoD, full length 318 aa (FL) (UniProt P10085 1-318); assay: co-immunoprecipitation from 293T cells, Flag-M2 beads, MyoD immunoblot
T1 construct: Overexpressed in 293T cells; also called MyoD FL; not shown: Myc tag from the pCMV-Myc vector
T1 sequence (looked up): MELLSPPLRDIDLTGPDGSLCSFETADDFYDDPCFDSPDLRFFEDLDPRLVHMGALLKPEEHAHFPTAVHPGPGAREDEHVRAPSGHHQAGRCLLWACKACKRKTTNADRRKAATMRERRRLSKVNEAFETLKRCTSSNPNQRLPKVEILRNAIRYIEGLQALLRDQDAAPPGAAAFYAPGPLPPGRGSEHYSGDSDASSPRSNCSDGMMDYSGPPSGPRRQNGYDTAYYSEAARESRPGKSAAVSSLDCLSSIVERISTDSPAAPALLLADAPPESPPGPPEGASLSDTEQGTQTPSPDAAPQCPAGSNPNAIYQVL

[2] = target: T2, Flag-tagged TAZ (transcriptional coactivator with PDZ-binding motif), full length (1-395 aa) (Mus musculus (Mouse), UniProt Q9EPK5 1-395); assay: co-immunoprecipitation from 293T cells, Flag-M2 beads, immunoblot
T2 construct: also called TAZ FL; Flag-TAZ; not shown: Flag tag

B1: TAZ truncation ΔN2 (aa 164-395 TAZ), lacking the WW domain (other)
chain: NHVNLHPSITSTSVPQRSMAVSQPNLAMNHQHQQVVATSLSPQNHPTQNQPTGLMSVPNALTTQQQQQQKLRLQRIQMERERIRMRQEELMRQEAALCRQLPMETETMAPVNTPAMSTDMRSVTNSSSDPFLNGGPYHSREQSTDSGLGLGCYSVPTTPEDFLSNMDEMDTGENSGQTPMTVNPQQTRFPDFLDCLPGTNVDLGTLESEDLIPLFNDVESALNKSEPFLTWL
notes: Cotransfected with MyoD into 293T cells; not shown: Flag tag, implied by the precipitation with Flag-M2 beads
- binding result [1]: no binding

B2: NT MyoD (MyoD aa 1-102), Myc-tagged (other, UniProt P10085 1-102, looked up)
chain: MELLSPPLRDIDLTGPDGSLCSFETADDFYDDPCFDSPDLRFFEDLDPRLVHMGALLKPEEHAHFPTAVHPGPGAREDEHVRAPSGHHQAGRCLLWACKACK
notes: Coexpressed with Flag-TAZ in 293T cells; not shown: Myc tag from the pCMV-Myc vector
- binding result [2]: no binding
